Assay results taken from the supplement of paper PMC10567573.

B1: DLC1 (parent)
chain: AIQGISEKEKAEIEAKEACDWLRA
B2: FUT8 (parent)
chain: YAHQPRTADEIPMEPGDIIGVAGN

Variants of: B1
Assay: protein stability index of a GFP-peptide fusion (GPS, HEK-293T) (PSI 1-6); higher = more stable
Conditions: c terminus: a fixed tail appended
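Note: lentivirally expressed fusions sorted by FACS into six bins by GFP to DsRed ratio, PSI derived from sequencing read proportions per bin multiplied by bin number.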

Protein stability index: each site, then its substitutions
S6: R 4.46 | G 4.39 | D 4.84 | F 3.86 | N 4.54 | P 4.88 | Y 3.48 | L 3.56 | H 4.28 | C 4.3 | Q 4.74 | A 4.31 | E 4.99 | M 4.04 | T 4.73 | I 3.58 | K 3.96 | W 3.71 | V 4.14
A1: V 4.18 | W 3.23 | H 4.21 | G 4.58 | T 4.6 | D 4.96 | Q 4.23 | K 4.32 | L 4.21 | F 3.18 | Y 3.71 | P 4.47 | N 5.11 | C 4.09 | E 4.74 | R 4.55 | I 3.94 | M 4.09 | S 4.67
G4: K 4.26 | L 3.27 | E 4.53 | Q 4.46 | M 3.92 | D 4.79 | V 3.9 | P 4.33 | N 3.67 | A 4.47 | H 4.36 | S 4.45 | Y 3.73 | T 4.2 | C 4.32 | F 4.24 | I 3.15 | W 3.8 | R 3.08
Q3: D 5.2 | A 4.83 | N 3.77 | M 4.18 | K 4.27 | I 3.88 | P 4.19 | E 5.07 | W 3.58 | L 3.54 | H 4.68 | R 4.43 | V 4.34 | C 4.28 | S 4.56 | T 4.81 | G 4.33 | Y 3.47 | F 3.61
I5: F 4.18 | A 4.77 | W 4.47 | H 4.94 | V 4.54 | G 4.9 | K 4.71 | Y 4.45 | C 4.66 | P 4.46 | R 4.57 | N 4.79 | D 5.19 | M 5.16 | S 4.8 | E 4.35 | L 4.36 | T 4.87 | Q 4.97
I2: H 4.9 | M 4.94 | D 4.99 | L 4.91 | Y 4.24 | G 4.57 | T 5 | R 4.78 | A 4.94 | P 4.96 | N 5.13 | V 4.19 | F 4.81 | E 5.26 | W 4.37 | C 4.88 | K 4.56 | S 4.99 | Q 4.79
E7: N 3.72 | K 4.3 | H 3.86 | S 4.15 | P 3.71 | T 4.14 | C 3.61 | F 3.44 | L 3.06 | D 4.39 | A 4.25 | Q 4.06 | M 3.67 | R 3.62 | I 3.63 | G 4.22

Variants of: B2
Assay: as above
Conditions: c terminus: a fixed tail appended

Protein stability index, by site and new letter:
N24: E 4.59 | F 2.46 | L 2.77 | Y 3.21 | R 3.5 | K 3.62 | G 3.43 | P 3.18 | H 3.39 | M 3.21 | S 4.17 | D 4.71 | C 3.57 | I 2.93 | W 2.66 | T 4.13 | V 3.61 | Q 4.03 | A 3.95
G23: Q 4.11 | C 3.12 | R 3.31 | L 3.27 | S 3.77 | T 3.87 | N 3.63 | F 2.99 | Y 3.13 | W 2.67 | P 3.73 | V 3.58 | D 4.24 | E 4.83 | K 4.19 | I 2.87 | H 3.99 | M 3.7
